We go through eight molecules from US20200123264A1 (Regeneron, published 2020).

Holding throughout (assay): Luminex, myc-captured LEPR protein on beads, Ab 5 µg/mL
The target of one assay is T1, human LEPR CRH1 (D1)-MMH (human, UniProt P48357 22-229, limits assumed).
T1 construct: domain: CRH1 (D1); Transiently expressed, captured from supernatant on anti-myc beads
T1 sequence (looked up): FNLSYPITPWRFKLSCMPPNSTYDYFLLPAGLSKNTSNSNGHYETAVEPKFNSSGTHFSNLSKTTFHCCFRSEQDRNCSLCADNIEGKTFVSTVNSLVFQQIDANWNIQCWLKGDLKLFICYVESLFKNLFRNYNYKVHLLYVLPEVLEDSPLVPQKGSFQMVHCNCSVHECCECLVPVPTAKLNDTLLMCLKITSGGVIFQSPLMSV
The method, then:
(§1) Aliquots of microspheres with immobilized anti-myc monoclonal antibodies, prepared as described above, were added individually to 1 mL of the each of these protein supernatants. The microspheres were gently mixed, incubated for two hours at 25° C., washed twice with 1 mL of DBPS, centrifuged to remove the supernatant and finally resuspended in 1 mL of DPBS buffer. Forty eight μL of anti-myc IgG coupled microspheres from individual reactions with full length human LEPR and with each of the human LEPR domain proteins were withdrawn and mixed together in 3.6 mL of PBS+20 mg/mL BSA+0.05% sodium azide (blocking buffer).
(§2) From this mixed pool, 75 μL of microspheres were plated per well on a 96 well filter plate (Millipore, Cat. No: MSBVN1250) and mixed with 25 μL of individual anti-human LEPR monoclonal antibodies (0.5 or 5 μg/mL), incubated for two hours at 25° C. and then washed twice with 200 μL of DPBS with 0.05% Tween 20 (washing buffer). […] After 30 minutes, the samples were washed twice with 200 μL of washing buffer and resuspended in 150 μL of wash buffer. The Median Fluorescence intensity (MFI) of the microspheres was measured in a Luminex Analyzer.

The target in a further assay is T2, human LEPR CRH2-MMH (human, UniProt P48357 428-634, limits assumed).
T2 construct: domain: CRH2; Transiently expressed, captured from supernatant on anti-myc beads
T2 sequence (looked up): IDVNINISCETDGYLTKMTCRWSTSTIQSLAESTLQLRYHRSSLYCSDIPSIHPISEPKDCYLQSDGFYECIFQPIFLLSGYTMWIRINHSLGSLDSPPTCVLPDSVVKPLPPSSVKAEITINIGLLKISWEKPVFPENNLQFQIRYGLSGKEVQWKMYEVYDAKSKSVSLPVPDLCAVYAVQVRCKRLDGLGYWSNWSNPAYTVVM
As to the method: as §1, §2

Assay [1] concerns the target T3, human LEPR CRH1-Ig (D2,D3)-MMH (human, UniProt P48357 230-427, limits assumed).
T3 construct: domain: CRH1-Ig (D2,D3); Transiently expressed, captured from supernatant on anti-myc beads
T3 sequence (looked up): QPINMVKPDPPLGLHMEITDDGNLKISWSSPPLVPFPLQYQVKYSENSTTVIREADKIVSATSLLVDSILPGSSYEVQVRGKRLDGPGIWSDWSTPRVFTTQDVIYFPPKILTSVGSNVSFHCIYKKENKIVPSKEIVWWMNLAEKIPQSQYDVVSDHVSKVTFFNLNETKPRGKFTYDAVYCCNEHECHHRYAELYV
The method, then:
as §1, §2

A further assay has as its target T4, human LEPR FNIII-MMH (human, UniProt P48357 636-839, limits assumed).
T4 construct: domain: FNIII; Transiently expressed, captured from supernatant on anti-myc beads
T4 sequence (looked up): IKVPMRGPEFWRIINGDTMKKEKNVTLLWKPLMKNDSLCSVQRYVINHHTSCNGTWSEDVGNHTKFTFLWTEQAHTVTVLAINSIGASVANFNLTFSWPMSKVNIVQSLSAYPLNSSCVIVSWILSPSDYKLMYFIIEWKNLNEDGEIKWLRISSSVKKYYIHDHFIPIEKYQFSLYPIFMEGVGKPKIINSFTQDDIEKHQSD
The method, then: as §1, §2

Assay [2] has as its target T5, recombinant human LEPR extracellular domain expressed with a C-terminal myc-myc-hexahistidine tag (human, UniProt P48357 22-839).
T5 construct: Monomeric construct; also called hLEPR.MMH; hLEPR-MMH
The method, then: as §1, §2

Assay [3] deals with T6, human LEPR CRH1 (D1,D2)-MMH (human, UniProt P48357 22-339, limits assumed).
T6 construct: domain: CRH1 (D1,D2); Transiently expressed, captured from supernatant on anti-myc beads
T6 sequence (looked up): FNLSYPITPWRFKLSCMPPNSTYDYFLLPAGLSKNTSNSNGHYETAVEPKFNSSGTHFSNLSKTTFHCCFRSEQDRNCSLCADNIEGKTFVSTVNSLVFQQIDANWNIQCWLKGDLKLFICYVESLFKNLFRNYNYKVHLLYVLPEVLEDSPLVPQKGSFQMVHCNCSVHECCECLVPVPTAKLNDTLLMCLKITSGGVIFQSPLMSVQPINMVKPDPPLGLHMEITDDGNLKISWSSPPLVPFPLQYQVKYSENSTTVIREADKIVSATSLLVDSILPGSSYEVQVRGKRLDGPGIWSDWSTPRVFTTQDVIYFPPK
As to the method:
as §1, §2

A further assay concerns the target T7, human LEPR Ig (D3)-MMH (human, UniProt P48357 340-427, limits assumed).
T7 construct: domain: Ig (D3); Transiently expressed, captured from supernatant on anti-myc beads
T7 sequence (looked up): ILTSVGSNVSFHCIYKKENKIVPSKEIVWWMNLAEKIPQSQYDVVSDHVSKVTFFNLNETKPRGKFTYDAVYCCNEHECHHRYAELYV
As to the method:
as §1, §2

B1: H4H18464P2 (antibody, human IgG4, V domains shown)
VH: QVQLVQSGPEVKKPGASVKVSCKGSGYTFSWYGISWIRQAPGHGLEWMGWISASSGNTRFAQKVQGRLTMTTDTSTSTAYMELRSLRSDDTAVYYCARTGTRPFDYWGQGTLVTVSS
VL: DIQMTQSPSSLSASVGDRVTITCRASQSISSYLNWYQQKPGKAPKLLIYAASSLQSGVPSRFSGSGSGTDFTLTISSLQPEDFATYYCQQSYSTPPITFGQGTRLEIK
notes: H4H prefix: human IgG4 Fc
As to B1, the “Luminex MFI” value is 13 MFI in the assay with human LEPR CRH1 (D1)-MMH; 24 MFI with human LEPR CRH2-MMH; 3740 MFI in assay [1]; 23 MFI in the assay with human LEPR FNIII-MMH; 9380 MFI in assay [2]; 59 MFI in assay [3].

B2: H4H18466P2 (antibody, human IgG4, V domains shown)
VH: EVQLVESGGGLVQPGGSLRLSCTASGFTFSSYGLHWVRQAPGKGLEYVSSINHNGGSKYYADSVKGRFTISRDNSKNTLFLQMGSLKTEDMAVYYCARDLFLEWLFHGFDIWGQGTMVTVSS
VL: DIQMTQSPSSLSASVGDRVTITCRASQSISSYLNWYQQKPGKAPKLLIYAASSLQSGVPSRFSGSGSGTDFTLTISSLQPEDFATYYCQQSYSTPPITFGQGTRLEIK
notes: H4H prefix: human IgG4 Fc
As to B2, the “Luminex MFI” value with human LEPR CRH1 (D1)-MMH was found to be 15 MFI; with human LEPR Ig (D3)-MMH it was 26 MFI; with human LEPR CRH2-MMH, 17 MFI; in assay [1], 76 MFI; with human LEPR FNIII-MMH, 457 MFI; in assay [2] it was 5070 MFI. Further, the “Luminex MFI” value in assay [3] came to 56 MFI.

B3: H4H18437P2 (antibody, human IgG4, V domains shown)
VH: QVQLVESGGGVVQPGRSLRLSCAASGFTFSSYGIHWVRQAPGKGLEWVAVISYDGNNKYYADSVKGRFTISRDNSKNTLYLQMNSLRAEDTAVYYCAKDLFLEWLFHGMGVWGQGTTVTVSS
VL: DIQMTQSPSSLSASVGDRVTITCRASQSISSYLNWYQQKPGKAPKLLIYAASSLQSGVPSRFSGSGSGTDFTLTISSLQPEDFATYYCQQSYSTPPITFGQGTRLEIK
notes: H4H prefix: human IgG4 Fc
For the molecule B3, the “Luminex MFI” value with human LEPR CRH1 (D1)-MMH is 21 MFI; with human LEPR Ig (D3)-MMH, 26 MFI; with human LEPR CRH2-MMH, 25 MFI; in assay [1], 43 MFI; in the assay with human LEPR FNIII-MMH, 1590 MFI; in assay [2], 8640 MFI. For the same molecule, the “Luminex MFI” value in assay [3] was found to be 82 MFI.

B4: H4H18440P2 (antibody, human IgG4, V domains shown)
VH: QVQLVESGGGMVKPGGSLRLSCAASGFTFSDYYMSWIRQAPGKGLEWISHISITGSTIYYADSVKGRFTISRDNAKNSLYLEMNRLRDEDTAVYYCTRDEPDIVLVRYGMDVWGQGTTVTVSS
VL: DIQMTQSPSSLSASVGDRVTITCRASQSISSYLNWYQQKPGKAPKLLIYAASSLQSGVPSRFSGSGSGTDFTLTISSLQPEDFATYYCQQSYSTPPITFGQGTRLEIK
notes: H4H prefix: human IgG4 Fc
As for B4, the “Luminex MFI” value with human LEPR CRH1 (D1)-MMH stood at 8 MFI; with human LEPR Ig (D3)-MMH, 14 MFI; in the assay with human LEPR CRH2-MMH, 17 MFI; in assay [1], 9160 MFI; with human LEPR FNIII-MMH it was 10 MFI; in assay [2], 7040 MFI. Besides, the “Luminex MFI” value in assay [3] was found to be 19300 MFI.

B5: H4H18457P2 (antibody, human IgG4, V domains shown)
VH: EVQLVESGGSVVRPGESLRLSCAASGFTFDDYGMSWVRQAPGKGLEWVSGISWNGGITVYADSVKGRFTVSRDNAKNSLYLQMNSLRAEDTALYHCARARYGGADYWGQGTLVTVSS
VL: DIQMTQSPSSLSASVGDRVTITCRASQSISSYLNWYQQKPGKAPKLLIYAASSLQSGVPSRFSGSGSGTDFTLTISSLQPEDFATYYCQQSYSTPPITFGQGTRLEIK
notes: H4H prefix: human IgG4 Fc
Take B5: the “Luminex MFI” value with human LEPR CRH1 (D1)-MMH was 13 MFI; with human LEPR Ig (D3)-MMH it was 18 MFI; in the assay with human LEPR CRH2-MMH, 18 MFI; in assay [1] it was 43 MFI; with human LEPR FNIII-MMH it was 1190 MFI; in assay [2], 7500 MFI. In addition, in assay [3], the “Luminex MFI” value was determined as 53 MFI.

B6: H4H18462P2 (antibody, human IgG4, V domains shown)
VH: EVQLVESGGDLVQPGRSLRLSCAASGFTFSSFAMSWVRQAPGRGLEWVSSLSDSGDNTYYADSVKGRFTISRDNSKNTLYLQMNNLRAEDTAVYYCAKDLFSGWLFHGFDVWGQGTMVTVSS
VL: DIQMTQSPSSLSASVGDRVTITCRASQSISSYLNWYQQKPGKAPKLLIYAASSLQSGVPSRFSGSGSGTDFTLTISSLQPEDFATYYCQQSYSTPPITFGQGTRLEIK
notes: H4H prefix: human IgG4 Fc
With B6, the “Luminex MFI” value in the assay with human LEPR CRH1 (D1)-MMH was 5380 MFI; with human LEPR Ig (D3)-MMH it was 21 MFI; in the assay with human LEPR CRH2-MMH, 24 MFI; in assay [1], 47 MFI; in the assay with human LEPR FNIII-MMH it was 581 MFI; in assay [2] it was 5850 MFI. The “Luminex MFI” value in assay [3] amounted to 5730 MFI.

B7: H4H18439P2 (antibody, human IgG4, V domains shown)
VH: QLQLQESGPGLVKPSETLSLTCIVSGGDITSSSYYWNWIRQPPGKGLEWIGNIYYSGSTNYNPSLKSRVTISIDTSKSQFSLKLRSVTAADTAVYYCARLLRYFDWSKGYLDYWGQGTLVTVSS
VL: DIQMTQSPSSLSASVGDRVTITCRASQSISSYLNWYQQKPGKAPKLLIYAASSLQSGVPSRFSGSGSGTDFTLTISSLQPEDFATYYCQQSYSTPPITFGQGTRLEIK
notes: H4H prefix: human IgG4 Fc
Regarding B7, the “Luminex MFI” value was 11 MFI with human LEPR CRH1 (D1)-MMH; 18 MFI with human LEPR Ig (D3)-MMH; 16 MFI with human LEPR CRH2-MMH; 10000 MFI in assay [1]; 13 MFI with human LEPR FNIII-MMH; 5470 MFI in assay [2]. Further, the “Luminex MFI” value in assay [3] is 21200 MFI.

B8: H4H17322P2 (antibody, human IgG4, V domains shown)
VH: QLQLQESGPGLVKPSETLSLTCTVSGASISSSRFYGGWIRQPPGKGLEWIGDIYYSGNTYYNPSLQSRVTISVDTSKNQFSLKLSSVTAADTAVYYCARHLMITFGGLIVEGFDIWGQGTMVTVSS
VL: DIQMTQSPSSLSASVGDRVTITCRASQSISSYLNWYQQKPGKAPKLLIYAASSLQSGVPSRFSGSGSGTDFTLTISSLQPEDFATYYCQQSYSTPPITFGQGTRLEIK
notes: H4H prefix: human IgG4 Fc
Consider B8, for which the “Luminex MFI” value with human LEPR CRH1 (D1)-MMH turned out to be 14 MFI; with human LEPR Ig (D3)-MMH, 26 MFI; with human LEPR CRH2-MMH, 19700 MFI; in assay [1] it was 58 MFI; with human LEPR FNIII-MMH it was 23 MFI; in assay [2] it was 8930 MFI. In assay [3], the “Luminex MFI” value was determined as 50 MFI.
